# Reference: US6613506B1, “Compositions and methods for inhibiting human immunodeficiency virus infection by down-regulating human cellular genes” (Subsidiary No. 3, Inc., priority 2000, dated 2003)
# Test system: HIV-1IIIB
# Assay: Selection of GSEs from HeLa cell library using productive infection of CEM-ss cells
# Assay type: cell-based
# Description: Additionally, a normalized RFE library made from HeLa cells was transferred into CEM-ss cells and the neo resistant population was infected with TCID50 of 3000/10^6 cells of HIV-1IIIB. This RFE library was represented by 50×10^6 independent recombinant clones. Four and seven days after infection, a purified anti-CD4 monoclonal antibody, L77 (available from Becton Dickinson), was added at 5 Φg/mL to prevent syncytia formation. Syncytia formation is thought to be prevented by blocking the interaction between gp120 expressed on the surface of an infected cell and CD4 on the surface of an uninfected cell. […] At 10-12 days after infection, CD4^+, p24^− cell population representing uninfected cells were sorted. Genomic DNA from the CD4^+, p24^− cells was purified and used for PCR amplification of inserts with the vector-derived primers. The amplified mixture was digested with EcoRI and BamHI and cloned back into the retroviral vector. The selection was repeated for additional rounds.
# The selection of GSEs from HeLa cell library using productive infection of CEM-ss cells isolated […] additional nucleic acid molecules which have substantial sequence identity with other cellular genes.
# The selection of GSEs from a HeLa cell library using productive infection of CEM-ss cells isolated 21 additional nucleic acid molecules which have substantial sequence identity with other cellular genes. […] The complement of SEQ ID NO:25 is represented by SEQ ID NO:26. […] The complement of SEQ ID NO:27 is represented by SEQ ID NO:28. […] The complement of SEQ ID NO:29 is represented by SEQ ID NO:30. […] The complement of SEQ ID NO:31 is represented by SEQ ID NO:32. […] The complement of SEQ ID NO:33 is represented by SEQ ID NO:34. […] The complement of SEQ ID NO:35 is represented by SEQ ID NO:36. […] The complement of SEQ ID NO:37 is represented by SEQ ID NO:38. […] The complement of SEQ ID NO:39 is represented by SEQ ID NO:40. […] The complement of SEQ ID NO:41 is represented by SEQ ID NO:42. […] The complement of SEQ ID NO:43 is represented by SEQ ID NO:44. […] The complement of SEQ ID NO:45 is represented by SEQ ID NO:46. […] The complement of SEQ ID NO:47 is represented by SEQ ID NO:48. […] The complement of SEQ ID NO:49 is represented by SEQ ID NO:50. […] The complement of SEQ ID NO:51 is represented by SEQ ID NO:52. […] The complement of SEQ ID NO:53 is represented by SEQ ID NO:54. […] The complement of SEQ ID NO:55 is represented by SEQ ID NO:56. […] The complement of SEQ ID NO:57 is represented by SEQ ID NO:58. […] The complement of SEQ ID NO:59 is represented by SEQ ID NO:60. […] The complement of SEQ ID NO:61 is represented by SEQ ID NO:62. […] The complement of SEQ ID NO:77 is represented by SEQ ID NO:78. […] The complement of SEQ ID NO:87 is represented by SEQ ID NO:88. […] The complement of SEQ ID NO:99 is represented by SEQ ID NO:100. […] The complement of SEQ ID NO:101 is represented by SEQ ID NO:102. […] The complement of SEQ ID NO:103 is represented by SEQ ID NO:104. […] The complement of SEQ ID NO:105 is represented by SEQ ID NO: 106. […] The complement of SEQ ID NO:107 is represented by SEQ ID NO:108. […] The complement of SEQ ID NO:109 is represented by SEQ ID NO:110. […] The complement of SEQ ID NO:111 is represented by SEQ ID NO:112. […] The complement of SEQ ID NO:113 is represented by SEQ ID NO:114. […] The complement of SEQ ID NO:115 is represented by SEQ ID NO:116. […] The complement of SEQ ID NO:117 is represented by SEQ ID NO:118.
row,Molecule,HIV-suppressive activity of the GSE and active orientation
1,"CF-527: GSE, SEQ ID NO:41; eukaryotic release factor 1 gene; acts through a peptide (nucleic acid, listed as Homo sapiens, chemistry not fully specified, eukaryotic release factor 1 gene; acts through a peptide) DNA: CGTTTAAGAATGGAAAAGCGACATAACTATGTTCGGAAAGTAGCAGAGACTGCTGTGCAGCTGTTTATTTCTGGGGACAAAGTGAATGTGGCTGGTCTAGTTTTAGCTGGATCCGCTC",a peptide from which interferes with HIV replication

# Test system: HIV
# Assay: Selection of GSEs from PBMC library using CEM-ss cells
# Assay type: cell-based
# Description: A cell-derived random fragment library (RFL) was constructed using cDNA from peripheral blood mononuclear cells (PBMC). Four buffy coats were obtained from four healthy blood donors and PBMCs were purified by Ficoll gradient centrifugation followed by stimulation with PHA (1 μg/mL). Cells were removed at 5, 10, and 24 hours after the addition of PHA and total RNA was isolated by Trizol extraction. All time points from all donors were then pooled. Polyadenylated mRNA was purified from the total RNA by passages through an oligo-dT column. cDNA was synthesized from the polyadenylated RNA with random primers using the Gibco Superscript Choice system for cDNA Synthesis (Gibco BRL, Rockville, Md.). The cDNA was normalized using the PCR-Select cDNA Subtraction kit (Clontech, Palo Alto, Calif.) based on the suppression subtractive hybridization methods of Diatchenko et al. (1996, Proc. Natl. Acad. Sci. USA 93, 6025-6030, 1996). The primers used for the normalization were: […]
# The normalized random fragments were digested with XhoI and Sse83871, purified on quick spin columns (available from Qiagen, Valencia, Calif.) and ligated into the SseI/XhoI site of a bicistronic retroviral vector, EMCVNgfrMPBIN. This vector was based on LXSNgfr as described in Dunn el al. (1999, Gene Therapy 6:130-137). Modifications included substitution of the Moloney murine leukemia virus LTR with the hybrid LTR described by Baum et al., 1995, (J. Virol. 69:7541-7547) and replacement of the SV40 promoter with encephalomyocarditis virus (EMCV) internal ribosomal entry site isolated from the plasmid, pCITE (available from Amersham, Arlington Heights, Ill.). The ligation mix was then transformed into competent cells. The total plasmid was purified from approximately 50 million clones.
# The PBMC library was screened using the methods described above in Section 1F. A total of 14 GSEs were isolated using CEM-ss cells. […] The complement of SEQ ID NO:69 is represented by SEQ ID NO:70. CF-675 (SEQ ID NO:71) is another GSE that has substantial sequence identity with a gene encoding human translationally controlled tumor protein 1 (GenBank Accession No. HUMCH13C4A). The complement of SEQ ID NO:71 is represented by SEQ ID NO:72. CF-679 (SEQ ID NO:83) is another GSE that has substantial sequence identity with a gene encoding human translationally controlled tumor protein 1 (GenBank Accession No. HUMCH13C4A). The complement of SEQ ID NO:83 is represented by SEQ ID NO:84. […] The complement of SEQ ID NO:75 is represented by SEQ ID NO:76. […] The complement of SEQ ID NO:79 is represented by SEQ ID NO:80. […] The complement of SEQ ID NO:67 is represented by SEQ ID NO:68. […] The complement of SEQ ID NO:63 is represented by SEQ ID NO:64. CF-675 (SEQ ID NO:65) is another GSE that has substantial sequence identity with a gene encoding alpha enolase protein. The complement of SEQ ID NO:65 is represented by SEQ ID NO:66. […] The complement of SEQ ID NO:73 is represented by SEQ ID NO:74. […] The complement of SEQ ID NO:81 is represented by SEQ ID NO:82. […] The complement of SEQ ID NO:85 is represented by SEQ ID NO:86. […] The complement of SEQ ID NO:89 is represented by SEQ ID NO:90. […] The complement of SEQ ID NO:91 is represented by SEQ ID NO:92. […] The complement of SEQ ID NO:93 is represented by SEQ ID NO:94. Another member of the cluster is CF-686 (SEQ ID NO:95), also having substantial sequence identity with a gene encoding cell surface heparin binding protein (Liu et al., ibid.). The complement of SEQ ID NO:95 is represented by SEQ ID NO:96.
row,Molecule,HIV-suppressive activity of the GSE and active orientation
1,"CF-693: GSE, SEQ ID NO:75, sense; NEF interacting protein gene (sense GATTCTCAGCTGGTAGCTGGTGTTGCATTCAAGAAGACTTTCTCTTACGCTGGGTT; listed as Homo sapiens)",interferes with HIV replication in a sense orientation
2,"CF-685: GSE, SEQ ID NO:93, antisense; cell surface heparin binding protein gene (nucleic acid, listed as Homo sapiens) antisense: TCGGGAGCCGCGGCTTATGGTGCAGACATGGCCAAGTCCAAGAACCACACCACACACAACCAGTCCCGAAAATGGCACAGAAATGGTATCAAGAAACCCCGAT",interfere with HIV replication as an antisense molecule
3,"CF-681: GSE, SEQ ID NO:85, antisense; FK506-binding protein A1 gene (nucleic acid, listed as Homo sapiens) antisense: TGGGGGAAGGGTGCAGCAACGATTTCTCACCAAATCACTACACAGGACAGCAAAGGGGTGAGAAGGGGCTGAGGGAGGAAAAGCCAGGAAACTGAGATCAGCAGAGGGAGCCAAGCATCAAAAAACAGGAGATGCTGAAGCTGCGATGACCAGCATCATTTTCTTAAGAGAACATTCAAGGATTTGTCATGATGGCTGGGCTTTCACTTGGTGTTAAGTCTACAAACAGCACCTTCAATTGGAACTGTCAATTAAAGTTCTTAAGATTTAGGAAGTGGTGGAGCTTGGAAAGTTATGAGATTACAAAATTTCTGAAAGTC",interferes with HIV replication as an antisense molecule
4,"CF-673: GSE, SEQ ID NO:73, antisense; BBC-1 gene (nucleic acid, listed as Homo sapiens) antisense: TCATCACTGAGGAAGAGAAGAATTTCAAAGCCTTCGCTAGTCTCCGTATGGCCCGTGCCAACGCCCGGCTCTTCGGCACACGGGCAAAA",interferes with HIV replication as an antisense molecule
5,"CF-684: GSE, SEQ ID NO:91, sense; human tumorous imaginal disc protein gene (nucleic acid, listed as Homo sapiens) sense: AATCATTGTTTTTTCCTTTGTAAATGTTGATTCAGAAAAGGAAAGCACAGGCTAAGCAGTTGAAGGTTCCCCACCATTCAGTGAGAGCAG",interferes with HIV replication in a sense orientation
6,"CF-676: GSE, SEQ ID NO:63, antisense; alpha enolase gene (nucleic acid, listed as Homo sapiens) antisense: GTACAACCAGCTCCTCAGAATTGAAGAGGAGCTGGGCAGCAAGGCTAAGTTTGCCGGCAGGAACTTCAGAAACCCCTTGGCCAAGTAAGCTGTGGGCAGGCAAGCCCTTCGGTCACCTGTTGGCT",interferes with HIV replication as an antisense molecule
7,"CF-674: GSE, SEQ ID NO:69, sense; human translationally controlled tumor protein 1 gene (nucleic acid, listed as Homo sapiens) sense: CTCTGTTCTTCAAGTTTCCCTTTGATTGATTTCATGTAATCTTTGATGTACTTCTTGTAGGCTTCTTTTGTGAAACTTGTTT",interferes with HIV replication in a sense orientation
8,"CF-653: GSE, SEQ ID NO:67, antisense; MIP-1 alpha gene (nucleic acid, listed as Homo sapiens) antisense: CCCACATTCCGTCACCTGCTCAGAATCATGCAGGTCTCCACTGCTGCCCTTGCTGTCCTCCTCTGCACCATGGCTCTCTGCAACCAGTTCTCTGCATCACTTGCTGCTGACACG",interferes with HIV replication as an antisense molecule
9,"CF-660: GSE, SEQ ID NO:79, antisense; human hsp90 chaperone protein gene (nucleic acid, listed as Homo sapiens) antisense: GAGAGGGGGGATCTCATCAGGAACTGCAGCATTGGGTTCCTCTGCTGCCACTTCATCTTCATCAAT",interferes with HIV replication as an antisense molecule
